Measured values published in patent US20240425882.

Biological target: T1, microtubule-associated protein EB2 (endogenous, mouse brain), Q8R001
T1 chain: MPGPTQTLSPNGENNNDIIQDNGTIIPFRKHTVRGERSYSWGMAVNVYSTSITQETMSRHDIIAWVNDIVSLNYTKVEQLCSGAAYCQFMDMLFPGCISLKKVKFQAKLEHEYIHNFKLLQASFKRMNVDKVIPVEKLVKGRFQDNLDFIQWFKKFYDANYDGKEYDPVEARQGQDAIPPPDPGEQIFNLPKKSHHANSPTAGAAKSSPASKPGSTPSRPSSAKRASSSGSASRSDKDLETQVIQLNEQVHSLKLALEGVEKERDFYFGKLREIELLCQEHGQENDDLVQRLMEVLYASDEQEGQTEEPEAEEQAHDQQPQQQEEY

B1: human CDKL5, isoform 3 (protein)
chain: MKIPNIGNVMNKFEILGVVGEGAYGVVLKCRHKETHEIVAIKKFKDSEENEEVKETTLRELKMLRTLKQENIVELKEAFRRRGKLYLVFEYVEKNMLELLEEMPNGVPPEKVKSYIYQLIKAIHWCHKNDIVHRDIKPENLLISHNDVLKLCDFGFARNLSEGNNANYTEYVATRWYRSPELLLGAPYGKSVDMWSVGCILGELSDGQPLFPGESEIDQLFTIQKVLGPLPSEQMKLFYSNPRFHGLRFPAVNHPQSLERRYLGILNSVLLDLMKNLLKLDPADRYLTEQCLNHPTFQTQRLLDRSPSRNQAGKSTALQSHHRSNSKDIQNLSVGLPRADEGLPANESFLNGNLAGASLSPLHTKTYQASSQPGSTSKDLTNNNIPHLLSPKEAKSKTEFDFNIDPKPSEGPGTKYLKSNSRSQQNRHSFMESSQSKAGTLQPNEKQSRHSYIDTIPQSSRSPSYRTKAKSHGALSDSKSVSNLSEARAQIAEPSTSRYFPSSCLDLNSPTSPTPTRHSDTRTLLSPSGRNNRNEGTLDSRRTTTRHSKTMEELKLPEHMDSSHSHSLSAPHESFSYGLGYTSPFSSQQRPHRHSMYVTRDKVRAKGLDGSLSIGQGMAARANSLQLLSPQPGEQLPPEMTVARSSVKETSREGTSSFHTRQKSEGGVYHDPHSDDGTAPKENRHLYNDPVPRRVGSFYRVPSPRPDNSFHENNVSTRVSSLPSESSSGTNHSKRQPAFDPWKSPENISHSEQLKEKEKQGFFRSMKKKKKKSQTVPNSDSPDLLTLQKSIHSASTPSSRPKEWRPEKISDLQTQSQPLKSLRKLLHLSSASNHPASSDPRFQPLTAQQTKNSFSEIRIHPLSQASGGSSNIRQEPAPKGRPALQLPGQMDPGWHVSSVTRSATEGPSYSEQLGAKSGPNGHPYNRTNRSRMPNLNDLKETAL
For B1, the “EB2 phosphorylation levels (Western blot, Cdkl5-ko mouse brain)” value (“EB2 phosphorylation levels” for short) was “by isoforms three or 4 slightly lower compared to isoform 1”.

B2: human CDKL5, isoform 2 (protein)
chain: MKIPNIGNVMNKFEILGVVGEGAYGVVLKCRHKETHEIVAIKKFKDSEENEEVKETTLRELKMLRTLKQENIVELKEAFRRRGKLYLVFEYVEKNMLELLEEMPNGVPPEKVKSYIYQLIKAIHWCHKNDIVHRDIKPENLLISHNDVLKLCDFGFARNLSEGNNANYTEYVATRWYRSPELLLGAPYGKSVDMWSVGCILGELSDGQPLFPGESEIDQLFTIQKVLGPLPSEQMKLFYSNPRFHGLRFPAVNHPQSLERRYLGILNSVLLDLMKNLLKLDPADRYLTEQCLNHPTFQTQRLLDRSPSRSAKRKPYHVESSTLSNRNQAGKSTALQSHHRSNSKDIQNLSVGLPRADEGLPANESFLNGNLAGASLSPLHTKTYQASSQPGSTSKDLTNNNIPHLLSPKEAKSKTEFDFNIDPKPSEGPGTKYLKSNSRSQQNRHSFMESSQSKAGTLQPNEKQSRHSYIDTIPQSSRSPSYRTKAKSHGALSDSKSVSNLSEARAQIAEPSTSRYFPSSCLDLNSPTSPTPTRHSDTRTLLSPSGRNNRNEGTLDSRRTTTRHSKTMEELKLPEHMDSSHSHSLSAPHESFSYGLGYTSPFSSQQRPHRHSMYVTRDKVRAKGLDGSLSIGQGMAARANSLQLLSPQPGEQLPPEMTVARSSVKETSREGTSSFHTRQKSEGGVYHDPHSDDGTAPKENRHLYNDPVPRRVGSFYRVPSPRPDNSFHENNVSTRVSSLPSESSSGTNHSKRQPAFDPWKSPENISHSEQLKEKEKQGFFRSMKKKKKKSQTTDSTNGENPSIKKSLFPLFNSKNHLKHSSSLKKLPVVTPPMVPNSDSPDLLTLQKSIHSASTPSSRPKEWRPEKISDLQTQSQPLKSLRKLLHLSSASNHPASSDPRFQPLTAQQTKNSFSEIRIHPLSQASGGSSNIRQEPAPKGRPALQLPGQMDPGWHVSSVTRSATEGPSYSEQLGAKSGPNGHPYNRTNRSRMPNLNDLKETAL
With B2 the “EB2 phosphorylation levels” value was “EB2 phosphorylation levels generated by isoform 2 were slightly higher ... compared to isoform 1”.

B3: human CDKL5, isoform 4 (protein)
chain: MKIPNIGNVMNKFEILGVVGEGAYGVVLKCRHKETHEIVAIKKFKDSEENEEVKETTLRELKMLRTLKQENIVELKEAFRRRGKLYLVFEYVEKNMLELLEEMPNGVPPEKVKSYIYQLIKAIHWCHKNDIVHRDIKPENLLISHNDVLKLCDFGFARNLSEGNNANYTEYVATRWYRSPELLLGAPYGKSVDMWSVGCILGELSDGQPLFPGESEIDQLFTIQKVLGPLPSEQMKLFYSNPRFHGLRFPAVNHPQSLERRYLGILNSVLLDLMKNLLKLDPADRYLTEQCLNHPTFQTQRLLDRSPSRNQAGKSTALQSHHRSNSKDIQNLSVGLPRADEGLPANESFLNGNLAGASLSPLHTKTYQASSQPGSTSKDLTNNNIPHLLSPKEAKSKTEFDFNIDPKPSEGPGTKYLKSNSRSQQNRHSFMESSQSKAGTLQPNEKQSRHSYIDTIPQSSRSPSYRTKAKSHGALSDSKSVSNLSEARAQIAEPSTSRYFPSSCLDLNSPTSPTPTRHSDTRTLLSPSGRNNRNEGTLDSRRTTTRHSKTMEELKLPEHMDSSHSHSLSAPHESFSYGLGYTSPFSSQQRPHRHSMYVTRDKVRAKGLDGSLSIGQGMAARANSLQLLSPQPGEQLPPEMTVARSSVKETSREGTSSFHTRQKSEGGVYHDPHSDDGTAPKENRHLYNDPVPRRVGSFYRVPSPRPDNSFHENNVSTRVSSLPSESSSGTNHSKRQPAFDPWKSPENISHSEQLKEKEKQGFFRSMKKKKKKSQTTDSTNGENPSIKKSLFPLFNSKNHLKHSSSLKKLPVVTPPMVPNSDSPDLLTLQKSIHSASTPSSRPKEWRPEKISDLQTQSQPLKSLRKLLHLSSASNHPASSDPRFQPLTAQQTKNSFSEIRIHPLSQASGGSSNIRQEPAPKGRPALQLPGQMDPGWHVSSVTRSATEGPSYSEQLGAKSGPNGHPYNRTNRSRMPNLNDLKETAL
In the case of B3, the “EB2 phosphorylation levels” value is reported as “by isoforms three or 4 slightly lower compared to isoform 1”.

B4: human cyclin-dependent kinase-like 5 (CDKL5), isoform 1 (protein)
chain: MKIPNIGNVMNKFEILGVVGEGAYGVVLKCRHKETHEIVAIKKFKDSEENEEVKETTLRELKMLRTLKQENIVELKEAFRRRGKLYLVFEYVEKNMLELLEEMPNGVPPEKVKSYIYQLIKAIHWCHKNDIVHRDIKPENLLISHNDVLKLCDFGFARNLSEGNNANYTEYVATRWYRSPELLLGAPYGKSVDMWSVGCILGELSDGQPLFPGESEIDQLFTIQKVLGPLPSEQMKLFYSNPRFHGLRFPAVNHPQSLERRYLGILNSVLLDLMKNLLKLDPADRYLTEQCLNHPTFQTQRLLDRSPSRSAKRKPYHVESSTLSNRNQAGKSTALQSHHRSNSKDIQNLSVGLPRADEGLPANESFLNGNLAGASLSPLHTKTYQASSQPGSTSKDLTNNNIPHLLSPKEAKSKTEFDFNIDPKPSEGPGTKYLKSNSRSQQNRHSFMESSQSKAGTLQPNEKQSRHSYIDTIPQSSRSPSYRTKAKSHGALSDSKSVSNLSEARAQIAEPSTSRYFPSSCLDLNSPTSPTPTRHSDTRTLLSPSGRNNRNEGTLDSRRTTTRHSKTMEELKLPEHMDSSHSHSLSAPHESFSYGLGYTSPFSSQQRPHRHSMYVTRDKVRAKGLDGSLSIGQGMAARANSLQLLSPQPGEQLPPEMTVARSSVKETSREGTSSFHTRQKSEGGVYHDPHSDDGTAPKENRHLYNDPVPRRVGSFYRVPSPRPDNSFHENNVSTRVSSLPSESSSGTNHSKRQPAFDPWKSPENISHSEQLKEKEKQGFFRSMKKKKKKSQTVPNSDSPDLLTLQKSIHSASTPSSRPKEWRPEKISDLQTQSQPLKSLRKLLHLSSASNHPASSDPRFQPLTAQQTKNSFSEIRIHPLSQASGGSSNIRQEPAPKGRPALQLPGQMDPGWHVSSVTRSATEGPSYSEQLGAKSGPNGHPYNRTNRSRMPNLNDLKETAL
With B4 the “EB2 phosphorylation (Cdkl5(D471fs) mouse brain)” value was “showed robust hCDKL5 protein expression and EB2 phosphorylation 3 months later”, the “EB2 phosphorylation (Cdkl5(R59X) mouse brain)” value was “showed robust hCDKL5 protein expression and EB2 phosphorylation 3 months later” and the “ability to phosphorylate EB2 (pS222 EB2 Western blot, mouse brain)” value was “CDKL5 was fully active, as determined by its ability to phosphorylate its endogenous target EB2 protein”. The “kinase activity, blotting for phosphorylated EB2 (Cdkl5-ko mouse brain, 3 months after AAV)” value was “human CDKL5 showed robust kinase activity when blotting for phosphorylated EB2 protein” and the “substrate phosphorylation by CDKL5 (phospho-EB2 levels, pS222/total EB2, Western blot, brain)” value was “the observed reduction in substrate phosphorylation by CDKL5 (as determined by phospho-EB2 levels) ... was restored to wild type levels”.
